Measured values taken from patent US8822171.

Target: recombinant human tau, largest isoform (2N4R)

B1: casein kinase 1 (CK1) (protein)
chain: MELRVGNRYRLGRKIGSGSFGDIYLGTDIAAGEEVAIKLECVKTKHPQLHIESKIYKMMQGGVGIPTIRWCGAEGDYNVMVMELLGPSLEDLFNFCSRKFSLKTVLLLADQMISRIEYIHSKNFIHRDVKPDNFLMGLGKKGNLVYIIDFGLAKKYRDARTHQHIPYRENKNLTGTARYASINTHLGIEQSRRDDLESLGYVLMYFNLGSLPWQGLKAATKRQKYERISEKKMSTPIEVLCKGYPSEFATYLNFCRSLRFDDKPDYSYLRQLFRNLFHRQGFSYDYVFDWNMLKFGASRAADDAERERRDREERLRH
New sites identified in recombinant tau (phosphorylated residues, numbered on 441-residue human tau): (46/50), 113, 131, 149, 169, 184, 208, (210, 212), 214, 237, 238, 241, 258, 262, 263, 285, 289, 305, 341, 352, 356, 361, 373, 386, (412/413/414/416, 2 sites), 416, 433, 435 | in vitro phosphorylation of recombinant tau, sites identified by LC/MS/MS: CK1 found 28 new sites making a total of 30 sites in all.
